This is an account of results in patent publication US7851165B2, “Screening compounds for activity in modulating chloride ion transport” (Pharmos Bioscience A/S, priority 2005, dated 2010).

For one assay, the system named is Ostm1. The assay is described as follows: Western blot of Ostm1 species after incubating fibroblasts with protease inhibitors. It is filed as cell-based. The note with it: fibroblasts incubated with protease inhibitor, FIG. 1 part (d). A general note: In western blotting, separated proteins are transferred to a membrane and probed.
The target of assay [1] is T1, ClC-6, endogenous, from solubilized mouse brain membranes (mouse, UniProt O35454 1-870).
T1 construct: Specificity control in the brain co-immunoprecipitation; also called CIC-6
T1 sequence (looked up): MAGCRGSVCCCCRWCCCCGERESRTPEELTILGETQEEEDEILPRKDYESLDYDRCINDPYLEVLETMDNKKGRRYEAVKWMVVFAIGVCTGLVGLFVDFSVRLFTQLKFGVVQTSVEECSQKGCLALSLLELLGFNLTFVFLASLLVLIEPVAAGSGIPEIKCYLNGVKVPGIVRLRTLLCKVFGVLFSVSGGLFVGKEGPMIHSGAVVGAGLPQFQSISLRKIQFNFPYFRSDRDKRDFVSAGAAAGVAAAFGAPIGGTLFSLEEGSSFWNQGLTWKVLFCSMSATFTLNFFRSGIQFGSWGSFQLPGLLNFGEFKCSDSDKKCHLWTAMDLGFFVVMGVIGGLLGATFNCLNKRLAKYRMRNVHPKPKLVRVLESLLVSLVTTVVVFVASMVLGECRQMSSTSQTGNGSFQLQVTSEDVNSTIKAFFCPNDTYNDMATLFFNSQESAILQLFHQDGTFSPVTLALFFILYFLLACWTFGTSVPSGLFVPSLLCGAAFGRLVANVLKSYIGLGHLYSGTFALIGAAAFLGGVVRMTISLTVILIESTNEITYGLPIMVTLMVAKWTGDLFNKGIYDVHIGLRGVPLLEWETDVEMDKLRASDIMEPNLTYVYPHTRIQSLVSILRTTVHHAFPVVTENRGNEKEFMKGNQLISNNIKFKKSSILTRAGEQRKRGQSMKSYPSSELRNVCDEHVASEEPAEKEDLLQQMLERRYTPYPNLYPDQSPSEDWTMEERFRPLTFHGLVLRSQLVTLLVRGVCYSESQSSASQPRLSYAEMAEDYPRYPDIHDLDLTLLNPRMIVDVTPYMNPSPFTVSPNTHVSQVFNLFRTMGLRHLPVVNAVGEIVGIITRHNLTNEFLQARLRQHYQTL
The assay is described as follows: co-immunoprecipitation from solubilized mouse brain membranes, Western blot. An excerpt: (§1) ClC-7 and Ostm1 can be co-immunoprecipitated using endogenous material (FIG. part (d)) or overexpressed proteins (FIG. 6). […] Solubilized brain membranes from the genotypes indicated were directly loaded on the gel (input, lanes 1-3), or first immunoprecipitated with ClC-7 (lanes 4,5) or Ostm1 antibodies (lanes 6,7).
(§2) Ostm1 or ClC-7 antibodies were crosslinked to protein A sepharose by dimethylpimelimidate. Brain membranes were pelleted and solubilized in lysis buffer (MES buffered saline pH 6.5, 1% Triton X-100, 2.5 mM CaCl_2, 2.5 mM MgCl_2). Non-solubilized material was removed by centrifugation at 70,000×g. Samples were incubated with protein A sepharose-antibody complexes for 2 h at 4° C. and washed 4× with lysis buffer. After elution with 100 μl 0.1 M glycine/Cl, pH 2.8, samples were neutralized and denatured using SDS sample buffer. Equivalent amounts of lysate and precipitate were separated by SDS-PAGE.
(§3) Resulting Western blots were probed for the proteins indicated at right. Arrowheads, specific Ostm1 bands; *, non-specific bands. Equivalent amounts of lysates and precipitates were loaded.

Assay [2] addresses T2, ClC-3, endogenous, from solubilized mouse brain membranes (mouse, UniProt P51791 1-818, limits assumed).
T2 construct: Specificity control in the brain co-immunoprecipitation; also called CIC-3
T2 sequence (looked up): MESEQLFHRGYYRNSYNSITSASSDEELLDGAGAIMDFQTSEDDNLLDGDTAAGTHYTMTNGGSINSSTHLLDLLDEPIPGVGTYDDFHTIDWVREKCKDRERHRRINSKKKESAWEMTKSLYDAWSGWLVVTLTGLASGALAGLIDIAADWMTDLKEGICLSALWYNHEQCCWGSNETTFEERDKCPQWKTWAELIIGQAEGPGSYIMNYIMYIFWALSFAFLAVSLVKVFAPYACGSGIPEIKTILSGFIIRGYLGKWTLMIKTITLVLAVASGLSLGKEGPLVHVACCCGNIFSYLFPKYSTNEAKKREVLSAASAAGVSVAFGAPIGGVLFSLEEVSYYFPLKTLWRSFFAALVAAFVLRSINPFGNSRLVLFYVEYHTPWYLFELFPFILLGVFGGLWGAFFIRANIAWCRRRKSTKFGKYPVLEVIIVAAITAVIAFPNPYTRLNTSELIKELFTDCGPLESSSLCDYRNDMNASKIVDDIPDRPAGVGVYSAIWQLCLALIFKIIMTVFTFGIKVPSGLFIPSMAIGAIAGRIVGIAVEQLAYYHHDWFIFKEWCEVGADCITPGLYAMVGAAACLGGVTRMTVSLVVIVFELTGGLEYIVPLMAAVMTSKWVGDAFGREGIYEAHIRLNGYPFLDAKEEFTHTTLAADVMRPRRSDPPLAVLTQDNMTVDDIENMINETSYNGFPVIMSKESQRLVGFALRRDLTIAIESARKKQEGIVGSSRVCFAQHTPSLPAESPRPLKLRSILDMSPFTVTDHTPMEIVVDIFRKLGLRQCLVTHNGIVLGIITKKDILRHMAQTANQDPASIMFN
The assay is described as above.
From the text: as §1, §2, §3

Assay [3] concerns the target T3, lamp-2, endogenous, from solubilized mouse brain membranes (mouse, UniProt P17047 26-415, limits assumed).
T3 construct: Specificity control in the brain co-immunoprecipitation
T3 sequence (looked up): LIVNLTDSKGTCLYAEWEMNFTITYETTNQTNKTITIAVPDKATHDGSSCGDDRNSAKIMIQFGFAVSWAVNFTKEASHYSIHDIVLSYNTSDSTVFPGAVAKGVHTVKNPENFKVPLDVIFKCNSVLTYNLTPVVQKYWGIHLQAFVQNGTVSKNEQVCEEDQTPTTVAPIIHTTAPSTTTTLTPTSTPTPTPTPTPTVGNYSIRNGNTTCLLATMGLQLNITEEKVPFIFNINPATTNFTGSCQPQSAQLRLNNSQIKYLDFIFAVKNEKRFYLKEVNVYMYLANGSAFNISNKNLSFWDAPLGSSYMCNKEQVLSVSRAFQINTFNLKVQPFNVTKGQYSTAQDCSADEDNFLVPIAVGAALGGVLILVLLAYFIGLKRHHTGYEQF
The description is as above.
From the text: as §1, §2, §3

With `CC(=O)N[C@@H](CC(C)C)C(=O)N[C@@H](CC(C)C)C(=O)N[C@H](C=O)CCCNC(=N)N` [leupeptin], the “proportion of the large (~80 kD) Ostm1 species versus the smaller ones” value in the assay with Ostm1 was “increased the proportion of the large Ostm1 species”.

B1: Ostm1 (Osteopetrosis-associated transmembrane protein 1), endogenous, from solubilized mouse brain membranes (other, UniProt Q8BGT0 35-338, looked up)
chain: ALPFTSSRHPGFADLLSEQQLLEVQDLTLSLLQGGGLGPLSLLPPDLPDLEPECRELLMDFANSSAELTACMVRSARPVRLCQTCYPLFQQVAIKMDNISRNIGNTSEGPRCGGSLLTADRMQIVLMVSEFFNSTWQEANCANCLTNNGEDLSNNTEDFLSLFNKTLACFEHNLQGHTYSLLPPKNYSEVCRNCKEAYKNLSLLYSQMQKLNGLENKAEPETHLCIDVEDAMNITRKLWSRTFNCSVTCSDTVSVVAVSVFILFLPVVFYLSSFLHSEQKKRKLILPKRLKSSTSFANIQENAT
modifications: N-linked glycosylation of the luminal domain
notes: Endogenous protein immunoprecipitated from Triton X-100 solubilized mouse brain membranes; also called product of the OSTM1 gene
Turning to B1, the binding result in assay [1], in assay [2] and in assay [3] was “no binding” throughout.
